Reference: a protein production outcome set (Wang et al. 2014)

Test: label from the status in PepcDB records
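Further: failed if final PepcDB status was selected cloned or expressed and not failed if soluble or beyond.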

| Sequence | protein production |
| --- | --- |
| TALIASGLVPQPFYFYGFLPRKKNEQKADLAKLARRHETVVLYESPFRVAKTLTLLATVCEGTRPIVACRELTKRYEEFARGTLAEMVTWAQDHQLKGEFVLLIGGNPDK | failed |
| TDYDNREKSADIALLKEMNSLRDIIENNSDWIWEVDVAGRYTFSSAKSIELLGRLPHEVIGKTPFDFMPKDEAHRVGKLFAEIAAERIPFAGLQNRNIRADGSEVLIESSGIPLFDHNGEFKGYRGIDRN | failed |
| TEALRMEREALLAEMGVAVREDGGTVGVFSPKKTPHLVNLNEDPLMSECLLYHIKDGVTRVGQVDMDIKLTGQFIREQHCLFRSIPQPDGEVVVTLEPCEGAETYVNGKLVTEPLVLKSGNRIVMGKNHVFRFNHPEQARLE | failed |
| TETSPDKWLIDGDTPLDEVERAIGYELPEGDYETISGLLFDHANALLKTGDVIEIPLDFEPEDYLNNTSPTQRILRITVLEVERNVPVKLALALLEDHPDNHPAPKENR | not failed |
| TGGLAIIQSMKHKLPPSERKLADYILAHPHKAIESTVNEISALANSSDAAVIRLCKSLGLKGFQDLKMRVAGDLAKPTFQGYRDIVPHEPLPSISEKTAGNAIQAI | failed |
| TIDLDYQRLALESLRFGHQKILEKIAKEKPKTNASNEDEDNLNASMIVTDTSTGKILALVGGIDYKKSAFNRATQAKRQFGSAIKPFVYQIAFDNGYSTTSKIPDTARNFENGNYSKNSEQNHAWHPSNYSRKFLGLVTLQEALSHSLNLATINLSDQLGFEKIYQSLSDMGFKNLPKDLSIVLGSFAISPIDAAEKYSLFSNYGTMLKPMLIESITNQQNDVKTFTPMETKKITSKEQAFLTLSVLMDAVENGTGSLARIKGLEIAGKTGTSNNNIDAWFIGFTPTLQSVIWFGRDDNTPISKGATGGVVSAPVYSYFMRNILAIEPSLKR | failed |
| TIDLNYQNKVESILKQYYGSELSSGRASFSEGMYAVAIEPSTGKVLAMAGLKNDHGNLVDDSLGTIAKNFTPGSVVKGATLSSGWENKVLRGNEVLYDQEIANIRSWFTRGLTPISAAQALEYSSNTYMVQVALRLMGQDYNTGDALTDRGYQEAMAKLRKTYGEYGLGVSTGLDLPESEGYVPGKYSLGTTLMESFGQYDAYTPMQLGQYISTIANNGNRLAPHVVSDIYEGNDSNKFAQLVRSITPKTLNKIAISDQELAIIQEGFYNVVNSGSGYATGTSMRGNVTTISGKTGTAETFAKNVNGQTVSTYNLNAIAYDTNRKIAVAVMYPHVTTDTTKSHQLVARDMIDQYISQFTGQ | failed |
| TIDPKAQKAAWDGLTDLKGARGAVVALDPQTGKVLAMVSAPSYDPSAFAGSTFKESDRFVELDKKKNKPLANRALRETYPPGSTFKILTAAAALEHGIVTDVDARTDAVSPYPLPQSTNKIGSEAGDAVCNKASMKTAMQHSCNNVFLDAASKLGQDKMRETAEKFGFNEDVYSDDFGDLLATKSLYPEDLDKPGTALTGMGQGSLTSTPMQMALVTAGIANDGKVMQPYVVDEVKGPDLDTLEKTEPAVMSEAVSAETAQKVQEMMEFTAKEGSARRAQIDGITVGGKTGTAQRGVDVNDEVPYGWFVSYGKKDDGSSVAVAVFIDPTDMDISRADISGGGLGAPIAKSVMKAVLK | failed |
| TIDRDIQWAAQNAITEQVEKSGADRGYVMVQDTRTGEILAMANSPGFDPNDLSKASSAALGNAALQDAYEPGSTAKVMSMAAVLEENVATPETHVVVPNRLHRGDRLFQDDIDHPTWNLTLNGVLAKSSNIGTILAAGQLGKTQKQANEVLYSYMRKFGIGLPTGLGFPGETSGILAPAAKWSTSQQYTIPFGQGVSINAMQAASVYSTIANGGVRVEPTLVRGTKGPDGRFTPAPRPKKTRVVSEKTAKTLAQMLESVVDDEEGTGAKARIPGYRVAGKTGTANRVDPATGKYHGYTSSFAGFAPADNPRITVYCAIQNATQGSYFGGQICGPIYKQVMEFALKTLQVPPTGAGAAHLPVTFTP | failed |
| TKALNFTYTLDSGVKGTLYQFPAEYTLLFINNPGCHACAEMIEGLKASPVINGFTAAKKLKVLSIYPDEELDEWKKHRNDFAKEWTNGYDKELVIKNKNLYDLRAIPTLYLLDKNKTVLLKDATLQKVEQYLAERG | not failed |
| TKDWKFTVSMNTAYNKNKIISLPYNGLPNNMQDAYQVYTGRKLADGTYERQWVGGYQEGQEYGVIYAFKSLGIYKSESEIPGNLIDRSTYTENGADAKVLYGPEAWAKLSDAEKEKGLPIQAGDVKWQDVNGDGVIDDYDRVKLGNTIPHWTGGFNINTSWKGLTLNCRLDYALGYWVHDWKTPWIMGNMQGTFNTISLVKDSWSESNPNGKYPVYGWADFLGKRNYDRISDINCYRGDYLAFREISLSYSLPQSWIHKSGLSKVDVSVTAQNLGYITAAKNMATPEYGVSQNGGYPLPRTVVLGLNVTF | failed |
| TLDAGLQRQLEDLALNWKSRLPPRSSLAMVVVDHTDMKVRGWVGSADITDDSRFGHIDMVSAVRSPGSVLKPFIYAMAMDEGLIHPASLLQDVPRRFSDYRPGNFDSGFHGPVSASEALVRSLNLPAVQVLEAYGPKRFAANLRNAGLPLTLPAGAEPNLSLILGGAGARLEDIVAAYSAFARHGKAARLRLKPSDPLTERALMSPGAAWIVRRILAGEAQPVPDASLPQAVPLAWKTGTSYGYRDAWAVGLNARYLIGIWTGRPDGTPVVGQFGFASAVPLLNQVNNLLLARPAMSRGGL | failed |
| TLDPSAQAIAEAALARGVQAHQGQYGAVIMLETRTGRILAAATYPPFDPGNWRGKPDTQERVKNRAFLDAYEPGSTMKALTIAAALNDGITTPDTVYETPMSRHVGGRWGHTIGDAVDHPSSLTTQQVLRYSSNVGMSHIVEGFTYQKLRDYLAAYGFGQPVNLTGAVTAQGILKPIDKWNDLERATNSFGQGVSGTTLQVAAAYNAVANDGLYVTPRLIEGAPAGERHEVVRAASARTVREMLKAIVVEGKFASLEGYDLSGKTGTAQVATENGYSNSVYKSTYAGFFPSDTPRVTVAVMVHGAQGEHHGSQVAAPIFREIASGMLSEWGTAPE | failed |
| TLLLCFIVAGLTGLGDNFTTISWFTFLDFRVQGDYLYFSPLAQSLDEGQWWRLVSPMLLHFGVLHLAMNSLWYWELGKRIELRQGPWALLGLTLLFSLVSNLAQHYTSGPSLFGGLSGVLYGLLGHIWLYQWLAPDRYFNLPKGVLVMMLIWLVVCLTGVVGTLGLGQIANAAHVGGLLIGCLTGLLGGALARRKLSA | failed |
| TLPPRGRLRIDVPLALAHAILIPNLKHFQSLYPDIDVILVSSDKKTDLISEGVDCLVRLGELQDSSFISRRLGDIRMVTCAAPSYLQQYGRPETLADLDQHRAINFFSDHSRDVMEWKFTKDGKIVSLRPVGSMLVDNSDILL | failed |
| TLQEYQKRMKKLDQQYKERIRNAELFLQLETEQVERNYIKEKKAAVKEFEDKKVELKENLIAELEEKKKMIENEKLTMELTGDSMEVKPIMTRKLRRRPNDPVPIPDKRRKPAPAQLNYLLTDEQIMEDLRTLNKLKSPKRPASPSSPEHLPATPAESPAQRFEARIEDGKLYYDKRWYHKSQAIYLESKDNQKLSCVISSVGANEIWVRKTSDSTKMRIYLGQLQRGLFVIRRRSAA | failed |
| TLRNYPLTCKVVYSYKASQPDELTIEEHEVLEVIEDGDMEDWVKARNKVGQVGYVPEKYLQFPTS | not failed |
| TPVRIESFDNSNIMGTSPVSAMVVFVNGKPSKKDYRKYKIKTVVGPDDYASMREVIRRRYGRVQREALTPPDLIVIDGGQGQVNIAKQVIQEELGLDIPIAGLQKNDKHQTHELLFGDPLEVVDLSRNSQEFFLLQRIQDEVHRFAITFHRQLRSKNSFSSQLDGIDG | failed |
| TSSTIFSGVAIYVNGYTDPSAEELRKLMMLHGGQYHVYYSRSKTTHIIATNLPNAKIKELKGEKVIRPEWIVESIKAGRLLSYIPYQLYT | not failed |
| TTQKGHRQKSFYRGVRAEKWAAWWLRCKGFHIAEIRFKTKCGEIDLIARRGNLVLIVEVKARSTLAEAMAAVSRVNERRIEAAADIWLARQKDRALLCVRFDLIAILPWRWPQHIPAFFM | failed |
| TVACPGRGRARPVCWKRSEMATCAVEVFGLLEDEENSRIVRVRVIAGIGLAKKDILGASDPYVRVTLYDPMNGVLTSVQTKTIKKSLNPKWNEEILFRVHPQQHRLLFEVFDENRLTRDDFLGQVDVPLYPLPTENPRLERPYTFKDFVLHPRSHKSRVKGYLRLKMTYLPKTSGSEDDNAEQAEELEPGWVVLDQPDAACH | failed |
| TVLYVHGGAWFQDPLENHFEYLDLLVDALDARVIMPVYPKIPHRDYRTTFELLTKIYKRLLTKIDEPENLVIIGDSAGGQIALAFAQMLKKEQLSQPGHIVLISPVLDATFKNPEARKYEKEDPMLGIDGSKYLVELWAGDAPLDDYKMSPMNGDLEGLGHITLTVGTKETLYPDAVKFSHMLNDKGIKHQFIPGYNLFHIYPLFPIPERQRFLEQLKKIIVTKEL | failed |
| TYNYYDHAASAGTGQYLNDVQVETIELPVDYDADFVIPVYGDSMEPKYHSGDYVFVKLSVELTDGDIGVFEYYGDAYIKQLLINDKGAFLHSLNQCGDYPDIPIDRDSDFRIIGEVMGSYRER | failed |
| VASGYGGIRVGGPYFDDLSKGQVFDWAPGVTLSLGLAAAHQSIVGNRLRLALDSDLCAAVTGMPGPLAHPGLVCDVAIGQSTLATQRVKANLFYRGLRFHRFPAVGDTLYTRTEVVGLRANSPKPGRAPTGLAGLRMTTIDRTDRLVLDFYRCAMLPASPDWKPGAVPGDDLSRIGADAPAPAADPTAHWDGAVFRKRVPGPHFDAGIAGAVLHSTADLVSGAPELARLTLNIAATHHDWRVSGRRLVYGGHTIGLALAQATRLLPNLATVLDWESCDHTAPVHEGDTLYSELHIESAQAHADGGVLGLRSLVYAVSDSASEPDRQVLDWRFSALQF | not failed |
| VAYLGPAGTFTEEALYKFADAGVFGDGEIEQLPAKSPQEAVDAVRHGTAQFAVVAIENFVDGPVTPTFDALDQGSNVQIIAEEELDIAFSIMVRPGTSLADVKTLATHPVGYQQVKNWMATTIPDAMYLSASSNGAGAQMVAEGTADAAAAPSRAAELFGLERLVDDVADVRGARTRFVAVQAQAA | failed |
| VDCIGCRKCEEVCLSDALDIMGKDVSVSELMDIIMQDYDFYISSGGGVTIGGGEMSLQTDFAVALLRECKKMMINTAVETQATTNVANYEKLAQVVDQFLIDIKHIDTTQHKALFGIGNENVRRNLERLMDLGANVVIRMPLVRGYNDSYDAITGAINYAMALSKRGNLQRIDILPYHQFGRN | failed |
| VDIVVIGAGFTGLSTAYHIRKTDSSASVVVLEGECVAFGASGRTSGWVVPIPVLDPATARTLYGKERLTELQNFAWDGLDYVRDLISRENMDSDFEVPGVTFTTLKGHEKRLETFIKYWKDQPRSSDSIIMDKATVSNALNSDAFSGGCRMLHSGQVNPVKHSRELKRIAQEAGAQIFEQTPVLDIEDHGTYFILKTPEGQVRTKHIVLGTNGFTHLLPATLGLRRAQLPMFVYQLMTEPLSEADWKALGWKHRAQFYDKTTYCPPTCRTTVDGRLQFNLCDVYLGTGRSMDEAQRMQFYDAAERMYKKMFPAFKNLRVAQRWSGACSISFDVRPQVGTLHDGRISYGYGYSGAGVMMSQNFGRILADLALQRKTELTE | failed |
| VEIRTGEFEDIAGITDIFNFYIEHTNARFEEFPFTLENREEWFSQFSRTTKYQIYVAVENGVLQGFACSQKYRAIPAFDDTVEVSVYLAQEAKGKGLGSKLYTQLFSSIRAYGVHRILSGVALPNDASVALHKRFGFREVGIFNEYAKKHGQYISSVWLEKALNVESAL | failed |
| VFHPVECSYCHSESMMGFRYRCQQCHNYQLCQDCFWRGHAGGSHSNQHQMKEYTSW | not failed |
